Assay results published in PMC5089669, “Biocatalytic Properties and Structural Analysis of Eugenol Oxidase from Rhodococcus jostii RHA1: A Versatile Oxidative Biocatalyst” (Chembiochem, 2016).

Molecular target: the molecule itself
Test: crystal structure; sitting-drop vapour diffusion at 20 °C; EUGO 15 mg/mL in 10 mM Tris-HCl pH 7.5 with 24 % PEG6000, 0.1 M Tris-HCl pH 8.0; crystals soaked with isoeugenol; two subunits in the asymmetric unit

B1: Eugenol oxidase (EUGO) from Rhodococcus jostii RHA1 (enzyme, UniProt Q0SBK1 1-526, looked up)
chain: MTRTLPPGVSDERFDAALQRFRDVVGDKWVLSTADELEAFRDPYPVGAAEANLPSAVVSPESTEQVQDIVRIANEYGIPLSPVSTGKNNGYGGAAPRLSGSVIVKTGERMNRILEVNEKYGYALLEPGVTYFDLYEYLQSHDSGLMLDCPDLGWGSVVGNTLDRGVGYTPYGDHFMWQTGLEVVLPQGEVMRTGMGALPGSDAWQLFPYGFGPFPDGMFTQSNLGIVTKMGIALMQRPPASQSFLITFDKEEDLEQIVDIMLPLRINMAPLQNVPVLRNIFMDAAAVSKRTEWFDGDGPMPAEAIERMKKDLDLGFWNFYGTLYGPPPLIEMYYGMIKEAFGKIPGARFFTHEERDDRGGHVLQDRHKINNGIPSLDELQLLDWVPNGGHIGFSPVSAPDGREAMKQFEMVRNRANEYNKDYAAQFIIGLREMHHVCLFIYDTAIPEAREEILQMTKVLVREAAEAGYGEYRTHNALMDDVMATFNWGDGALLKFHEKIKDALDPNGIIAPGKSGIWSQRFRGQNL
modifications: FAD covalently bound: bond between His390 and the C8M atom of the flavin ring
notes: eugenol oxidase (EUGO), flavoprotein oxidase of the VAO family, Rhodococcus jostii RHA1; source: E. coli culture
- stoichiometry N: 2
